Results on 2 proteins are retold here after article PMC4861259, “An Interplay of S-Nitrosylation and Metal Ion Binding for Astrocytic S100B Protein” (PLoS ONE, 2016).

The data set deals with the molecule itself. As to the kind of experiment: SEC; Superdex 75 10/300 GL; 200 μl of 100 μM protein loaded, before and after every ITC run, in the ITC buffers (10 mM TES pH 7.2 with 15 mM or 150 mM NaCl, with or without CaCl2). (In gel filtration, larger molecules generally elute earlier.)

B1: recombinant human S100B protein, unmodified (S100BSH) (natural protein, UniProt P04271 1-92, looked up)
chain: MSELEKAMVALIDVFHQYSGREGDKHKLKKSELKELINNELSHFLEEIKEQEVVDKVMETLDNDGDGECDFQEFMAFVAMVTTACHEFFEHE
notes: S100B protein, human, recombinant; Non-covalent homodimer; source: E. coli bacterial culture, purified (semi-preparative HPLC, C18)
A word on the stoichiometry N: it is the number of molecules, sites or subunits per partner or assembly. On to B1, for which the “stoichiometry N” value was 2.

B2: recombinant human S100B protein, S-nitrosylated at Cys84 (S100BSNO) (natural protein, UniProt P04271 1-92, looked up)
chain: MSELEKAMVALIDVFHQYSGREGDKHKLKKSELKELINNELSHFLEEIKEQEVVDKVMETLDNDGDGECDFQEFMAFVAMVTTACHEFFEHE
modifications: S-nitrosylated cysteine (SNO) at Cys84
notes: S100B protein, human, recombinant, chemically S-nitrosylated at Cys84; Non-covalent homodimer; also called S100BNO; S-nitrosylated S100B; source: E. coli, chemically S-nitrosylated, purified (semi-preparative HPLC, C18)
On to B2, for which the “stoichiometry N” value worked out at 2.
